The record followed here is US20090209615A1, “INHIBITORS OF MATRIX METALLOPROTEINASES TO TREAT NEUROLOGICAL DISORDERS” (priority 2004, published 2009).

A short description of this data set: Stability of S-nitrosothiols (NAT conversion from DAN). To be noted: within 15 min of incubation.

B1: S-nitroso-MMP-9: S-nitrosylation product of SNOC-treated R-proMMP-9 (protein, UniProt P14780 20-707, looked up)
pro-form: APRQRQSTLVLFPGDLRTNLTDRQLAEEYLYRYGYTRVAEMRGESKSLGPALLLLQKQLSLPETGELDSATLKAMRTPRCGVPDLGRFQTFEGDLKWHHHNITYWIQNYSEDLPRAVIDDAFARAFALWSAVTPLTFTRVYSRDADIVIQFGVAEHGDGYPFDGKDGLLAHAFPPGPGIQGDAHFDDDELWSLGKGVVVPTRFGNADGAACHFPFIFEGRSYSACTTDGRSDGLPWCSTTANYDTDDRFGFCPSERLYTQDGNADGKPCQFPFIFQGQSYSACTTDGRSDGYRWCATTANYDRDKLFGFCPTRADSTVMGGNSAGELCVFPFTFLGKEYSTCTSEGRGDGRLWCATTSNFDSDKKWGFCPDQGYSLFLVAAHEFGHALGLDHSSVPEALMYPMYRFTEGPPLHKDDVNGIRHLYGPRPEPEPRPPTTTTPQPTAPPTVCPTGPPTVHPSERPTAGPTGPPSAGPTGPPTAGPSTATTVPLSPVDDACNVNIFDAIAEIGNQLYLFKDGKYWRFSEGRGSRPQGPFLIADKWPALPRKLDSVFEERLSKKLFFFSGRQVWVYTGASVLGPRRLDKLGLGADVAQVTGALRSGRGKMLLFSGRRLWRFDVKAQMVDPRSASEVDRMFPGVPLDTHDVFQYREKAYFCQDRFYWRVSSRSELNQVDQVGYVTYDILQCPED
modifications: pro-form S-nitrosylated
B1: the remained entry is reported as “over 80%”.
